The supplement of paper PMC10567573
± gives the standard deviation.

Experiment: protein stability index of a GFP-peptide fusion (GPS, HEK-293T) (PSI 1-6); higher = more stable
Conditions: c terminus: a fixed tail appended
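Also: 24-mer peptide tiles fused after GFP, lentivirally expressed, FACS-sorted into six equal bins by GFP/DsRed ratio, decoded by Illumina sequencing, PSI is the read-weighted mean bin number.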

In the case of PFHDSDPSALFSKIRRGQFCIPEH [TRIB1], the protein stability index (treatment: DMSO) is reported as 3.13 ± 0.25 and the protein stability index (treatment: MLN4924 1 uM, 8 h) is reported as 3.12 ± 0.44.
With VAAGEKSILTDNPTWIIDPIDGTT [IMPA1] the protein stability index (treatment: DMSO) was 3.92 ± 0.19 and the protein stability index (treatment: MLN4924 1 uM, 8 h) was 4.03 ± 0.2.
KIESLMDEIEFLKKLHEEELRDLQ [PRPH] showed a protein stability index (treatment: DMSO) of 3.14 ± 0.23 and a protein stability index (treatment: MLN4924 1 uM, 8 h) of 3.61 ± 0.35.
For QKGSHPMCKEHEDEKINIYCLTCE [TRIM63], the protein stability index (treatment: DMSO) was 4.64 ± 0.22 and the protein stability index (treatment: MLN4924 1 uM, 8 h) was 4.67 ± 0.17.
Sequence AEEAEDHGRIPDPDDFVPPVPPPS [FAM189A2] has a protein stability index (treatment: DMSO) of 5.52 ± 0.24 and a protein stability index (treatment: MLN4924 1 uM, 8 h) of 5.51 ± 0.06.
Work on GWWKRLFTLKEEKPKMYFMTMIVS [ARL6IP1] yielded a protein stability index (treatment: DMSO) of 2.95 ± 0.66 and a protein stability index (treatment: MLN4924 1 uM, 8 h) of 2.04 ± 0.57.
SAVEGAPPARPRPRSPECRMIPGQ [IRX6] showed a protein stability index (treatment: DMSO) of 4.86 ± 0.24 and a protein stability index (treatment: MLN4924 1 uM, 8 h) of 4.96 ± 0.32.
With ELKKAAYDIEVNTRRAQADLAYQL [FLOT1] the protein stability index (treatment: DMSO) was 3.2 ± 0.32 and the protein stability index (treatment: MLN4924 1 uM, 8 h) was 3.3 ± 0.32.
Work on RMEYVHSKNLIYRDVKPENFLIGR [CSNK1G1] yielded a protein stability index (treatment: DMSO) of 2.45 ± 0.16 and a protein stability index (treatment: MLN4924 1 uM, 8 h) of 2.79 ± 0.31.
RLVESTSLRKAIETVYAAYLPKNT [MLH1] gave a protein stability index (treatment: DMSO) of 2.2 ± 0.27.
Sequence DNMYRLAHFSPFLYYQSQELPNGS [PDZK1] has a protein stability index (treatment: DMSO) of 2.12 ± 0.22 and a protein stability index (treatment: MLN4924 1 uM, 8 h) of 2.33 ± 0.23.
Sequence CLRCWDQRTIMKPLEYQFKSQIMS [TLE6] has a protein stability index (treatment: DMSO) of 2.14 ± 0.27 and a protein stability index (treatment: MLN4924 1 uM, 8 h) of 2.47 ± 0.48.
Sequence LTEHKRIHTGKKPHVCSLCGKAFY [ZNF649] has a protein stability index (treatment: DMSO) of 2.83 ± 0.38 and a protein stability index (treatment: MLN4924 1 uM, 8 h) of 3.32 ± 0.56.
ADYSAALDPAYTTLEFENVQVLTM [HNF4A] showed a protein stability index (treatment: DMSO) of 2.75 ± 0.25 and a protein stability index (treatment: MLN4924 1 uM, 8 h) of 2.39 ± 0.32.
In the case of RNVRERIAKNLVEKGILTTEKQNF [GOLPH3L], the protein stability index (treatment: DMSO) is reported as 3.73 ± 0.22 and the protein stability index (treatment: MLN4924 1 uM, 8 h) is reported as 3.82 ± 0.2.
With NSSQSSSDGSCKTAGEMVFVYENA [BTBD10] the protein stability index (treatment: DMSO) was 4.22 ± 0.3 and the protein stability index (treatment: MLN4924 1 uM, 8 h) was 4.15 ± 0.22.
For AVKKFVESEDDPVVKKIALREIRM [CDKL4], the protein stability index (treatment: DMSO) was 2.52 ± 0.25 and the protein stability index (treatment: MLN4924 1 uM, 8 h) was 2.98 ± 0.26.
In the case of RKLLNRHNIVFGDYTWTEFDEPFL [TRIP13], the protein stability index (treatment: DMSO) is reported as 2.24 ± 0.24 and the protein stability index (treatment: MLN4924 1 uM, 8 h) is reported as 2.64 ± 0.22.
AIVRKCRQKGTGKEYAAKFIKKRR [DAPK3] showed a protein stability index (treatment: DMSO) of 3.45 ± 0.24 and a protein stability index (treatment: MLN4924 1 uM, 8 h) of 3.81 ± 0.32.
GGNHFRGTSDYDDVLSCEYYSPIL [KLHL13] showed a protein stability index (treatment: DMSO) of 2.81 ± 0.096 and a protein stability index (treatment: MLN4924 1 uM, 8 h) of 2.77 ± 0.18.
Sequence LYLEEIADRIIEVDMECQTDAFLD [RSPH3] has a protein stability index (treatment: DMSO) of 2.44 ± 0.74 and a protein stability index (treatment: MLN4924 1 uM, 8 h) of 2.59 ± 0.28.
With VYIFATCLGLSYDGLLGDNQIMPK [MAGEA6] the protein stability index (treatment: DMSO) was 2.82 ± 0.52 and the protein stability index (treatment: MLN4924 1 uM, 8 h) was 2.44 ± 0.44.
Sequence ASAPTTPCQKSPNGVRVFPPAMPP [TRIM9] has a protein stability index (treatment: DMSO) of 4.14 ± 0.25 and a protein stability index (treatment: MLN4924 1 uM, 8 h) of 4.2 ± 0.17.
SQSLCLNKPTMSFKDYIQERSDPV [ETS2] showed a protein stability index (treatment: DMSO) of 3.54 ± 0.32 and a protein stability index (treatment: MLN4924 1 uM, 8 h) of 3.67 ± 0.53.
With RCKEENTIILQQLLPLRTKVAKLL [NLN] the protein stability index (treatment: DMSO) was 2.47 ± 0.25 and the protein stability index (treatment: MLN4924 1 uM, 8 h) was 2.21 ± 0.17.
Sequence EKKKAHYRQSSFPHCSDLMPSGSE [KCNA4] has a protein stability index (treatment: DMSO) of 4.2 ± 0.2 and a protein stability index (treatment: MLN4924 1 uM, 8 h) of 4.31 ± 0.17.
In the case of KGNRTARIIDKPRVIEVLPRGATA [SEPHS2], the protein stability index (treatment: DMSO) is reported as 3.64 ± 0.22 and the protein stability index (treatment: MLN4924 1 uM, 8 h) is reported as 3.77 ± 0.2.
Sequence QLSIERGKVLQNKQAEICQLEEKL [CCDC89] has a protein stability index (treatment: DMSO) of 4.58 ± 0.4 and a protein stability index (treatment: MLN4924 1 uM, 8 h) of 4.45 ± 0.37.
LALLLCAGQVTALPVNSPMNKGDT [CHGA] showed a protein stability index (treatment: DMSO) of 2.68 ± 0.83 and a protein stability index (treatment: MLN4924 1 uM, 8 h) of 2.59 ± 0.5.
For EQIHLLLSSQCFSNISRPRDNPMC [M1AP], the protein stability index (treatment: DMSO) was 2.25 ± 0.43 and the protein stability index (treatment: MLN4924 1 uM, 8 h) was 2.33 ± 0.25.
ENEETGEFSIDNYPTDNTKVMIFK [MIA2] showed a protein stability index (treatment: MLN4924 1 uM, 8 h) of 4.217 ± 0.033.
For YWGSPEEQSLLSRWNPWSTEVPYA [TPRG1], the protein stability index (treatment: DMSO) was 2.09 ± 0.14 and the protein stability index (treatment: MLN4924 1 uM, 8 h) was 2.23 ± 0.28.
HLGCMHYTVRAPVGVAGLISPWNL [ALDH8A1] showed a protein stability index (treatment: DMSO) of 2.48 ± 0.97 and a protein stability index (treatment: MLN4924 1 uM, 8 h) of 2.31 ± 0.64.
